Article doi:10.1101/2022.08.03.502606
Like-named read-outs stand apart in the source and are kept apart here.

Assays:
CaMKII^F394BzF (human) = CaMKII^F394BzF (human) (UniProt Q9UQM7)
[1] = biological target: CaMKII^K42RD135N-AviTag (kinase-dead CaMKII, K42R and D135N double mutant, C-terminal AviTag) (human) (UniProt Q9UQM7)
[2] = biological target: CaMKII^K42RD135N-AviTag (kinase-dead CaMKII, K42R and D135N double mutant, C-terminal AviTag) (human) (UniProt Q9UQM7); experiment: mass photometry
[3] = biological target: CaMKII^K42RD135N-AviTag (kinase-dead CaMKII, K42R and D135N double mutant, C-terminal AviTag) (human) (UniProt Q9UQM7); experiment: mass photometry; remark: listed apart in the source

Row | Substance | stoichiometry N (CaMKII^F394BzF (human)) | stoichiometry N [1] | stoichiometry N [2] | percent in the tetramer peak [3] [%] | stoichiometry N [3]
1 | CaMKII^F394BzF (from UniProt Q9UQM7 6-478) (enzyme) | 12 | – | – | – | –
2 | CaMKII^K42RD135N-AviTag (kinase-dead CaMKII, K42R and D135N double mutant, C-terminal AviTag) (from UniProt Q9UQM7 6-478) (enzyme) | – | 12 | 10 | 12 | 4
